Data from article PMC8210318, “The HelQ human DNA repair helicase utilizes a PWI-like domain for DNA loading through interaction with RPA, triggering DNA unwinding by the HelQ helicase core” (NAR Cancer, 2021).

B1: HelQ helicase, full length, human (enzyme, UniProt Q8TDG4 1-1101, looked up)
chain: MDECGSRIRRRVSLPKRNRPSLGCIFGAPTAAELVPGDEGKEEEEMVAENRRRKTAGVLPVEVQPLLLSDSPECLVLGGGDTNPDLLRHMPTDRGVGDQPNDSEVDMFGDYDSFTENSFIAQVDDLEQKYMQLPEHKKHATDFATENLCSESIKNKLSITTIGNLTELQTDKHTENQSGYEGVTIEPGADLLYDVPSSQAIYFENLQNSSNDLGDHSMKERDWKSSSHNTVNEELPHNCIEQPQQNDESSSKVRTSSDMNRRKSIKDHLKNAMTGNAKAQTPIFSRSKQLKDTLLSEEINVAKKTVESSSNDLGPFYSLPSKVRDLYAQFKGIEKLYEWQHTCLTLNSVQERKNLIYSLPTSGGKTLVAEILMLQELLCCRKDVLMILPYVAIVQEKISGLSSFGIELGFFVEEYAGSKGRFPPTKRREKKSLYIATIEKGHSLVNSLIETGRIDSLGLVVVDELHMIGEGSRGATLEMTLAKILYTSKTTQIIGMSATLNNVEDLQKFLQAEYYTSQFRPVELKEYLKINDTIYEVDSKAENGMTFSRLLNYKYSDTLKKMDPDHLVALVTEVIPNYSCLVFCPSKKNCENVAEMICKFLSKEYLKHKEKEKCEVIKNLKNIGNGNLCPVLKRTIPFGVAYHHSGLTSDERKLLEEAYSTGVLCLFTCTSTLAAGVNLPARRVILRAPYVAKEFLKRNQYKQMIGRAGRAGIDTIGESILILQEKDKQQVLELITKPLENCYSHLVQEFTKGIQTLFLSLIGLKIATNLDDIYHFMNGTFFGVQQKVLLKEKSLWEITVESLRYLTEKGLLQKDTIYKSEEEVQYNFHITKLGRASFKGTIDLAYCDILYRDLKKGLEGLVLESLLHLIYLTTPYDLVSQCNPDWMIYFRQFSQLSPAEQNVAAILGVSESFIGKKASGQAIGKKVDKNVVNRLYLSFVLYTLLKETNIWTVSEKFNMPRGYIQNLLTGTASFSSCVLHFCEELEEFWVYRALLVELTKKLTYCVKAELIPLMEVTGVLEGRAKQLYSAGYKSLMHLANANPEVLVRTIDHLSRRQAKQIVSSAKMLLHEKAEALQEEVEELLRLPSDFPGAVASSTDKA
notes: human HelQ DNA repair helicase, full length; Tetramer as apoenzyme and dimer with ATP-Mg2+ by SEC-MALS; also called HelQ apoenzyme; His-SUMO-SF-tagged HelQ; source: SF9 insect cells (Bac-to-Bac baculovirus), purified (ammonium sulphate, Ni-NTA, heparin, Q-sepharose); not shown: His6, N-terminal, kept; SUMO, N-terminal, kept; StrepII-Flag, N-terminal, kept
B2: C-HelQ, HelQ 'core' helicase (826 amino acids) (domain or fragment, human, UniProt Q8TDG4 275-1101, looked up)
chain: GNAKAQTPIFSRSKQLKDTLLSEEINVAKKTVESSSNDLGPFYSLPSKVRDLYAQFKGIEKLYEWQHTCLTLNSVQERKNLIYSLPTSGGKTLVAEILMLQELLCCRKDVLMILPYVAIVQEKISGLSSFGIELGFFVEEYAGSKGRFPPTKRREKKSLYIATIEKGHSLVNSLIETGRIDSLGLVVVDELHMIGEGSRGATLEMTLAKILYTSKTTQIIGMSATLNNVEDLQKFLQAEYYTSQFRPVELKEYLKINDTIYEVDSKAENGMTFSRLLNYKYSDTLKKMDPDHLVALVTEVIPNYSCLVFCPSKKNCENVAEMICKFLSKEYLKHKEKEKCEVIKNLKNIGNGNLCPVLKRTIPFGVAYHHSGLTSDERKLLEEAYSTGVLCLFTCTSTLAAGVNLPARRVILRAPYVAKEFLKRNQYKQMIGRAGRAGIDTIGESILILQEKDKQQVLELITKPLENCYSHLVQEFTKGIQTLFLSLIGLKIATNLDDIYHFMNGTFFGVQQKVLLKEKSLWEITVESLRYLTEKGLLQKDTIYKSEEEVQYNFHITKLGRASFKGTIDLAYCDILYRDLKKGLEGLVLESLLHLIYLTTPYDLVSQCNPDWMIYFRQFSQLSPAEQNVAAILGVSESFIGKKASGQAIGKKVDKNVVNRLYLSFVLYTLLKETNIWTVSEKFNMPRGYIQNLLTGTASFSSCVLHFCEELEEFWVYRALLVELTKKLTYCVKAELIPLMEVTGVLEGRAKQLYSAGYKSLMHLANANPEVLVRTIDHLSRRQAKQIVSSAKMLLHEKAEALQEEVEELLRLPSDFPGAVASSTDKA
notes: human HelQ helicase core: the 826 amino acids that match Hel308; excludes the 274 amino acid N-terminal region; 85 kDa; The start at 275 follows from the excluded 274 residue N-terminal region; also called core HelQ helicase; source: Escherichia coli, purified (as described for HelQ)

What was measured:
[1] = molecular target: the molecule itself; assay: SEC-MALS; HelQ with ATP-Mg2+: pre-incubated in 5 mM MgCl2 and 5 mM ATP at 37°C for 10 min, running buffer with 0.2 mM ATP and 0.2 mM MgCl2, Superdex-200
[2] = molecular target: the molecule itself; assay: SEC-MALS; HelQ apoenzyme, 200 ul of 2.4 uM monomer, Superdex-200, 50 mM Tris-HCl pH 8.0, 150 mM NaCl, 10% glycerol, pre-incubated 10 min at 37°C; no ATP-Mg2+
[3] = molecular target: the molecule itself; assay: SEC; analytical gel filtration of C-HelQ in ATP-Mg2+ and ssDNA, Superdex-200, against mass standards

| Protein | stoichiometry N [1] | stoichiometry N [2] | stoichiometry N [3] |
| --- | --- | --- | --- |
| B1 | 2 | 4 | – |
| B2 | – | – | 2 |
